Data as given in publication PMC10400533, “Exploring the G-quadruplex binding and unwinding activity of the bacterial FeS helicase DinG”.

Tests used:
DinG helicase [1] = molecular target: T1, DinG helicase (Escherichia coli, UniProt P27296 1-716); assay: SPR; SPR single-cycle kinetics, 25 C, DinG immobilized, DNA 0.062-1 uM; DNA prepared in 10 mM potassium phosphate, 50 mM KCl, pH 7.5; SPR running buffer not in material; conditions: protein: recombinant, tags: His-tag
T1 sequence: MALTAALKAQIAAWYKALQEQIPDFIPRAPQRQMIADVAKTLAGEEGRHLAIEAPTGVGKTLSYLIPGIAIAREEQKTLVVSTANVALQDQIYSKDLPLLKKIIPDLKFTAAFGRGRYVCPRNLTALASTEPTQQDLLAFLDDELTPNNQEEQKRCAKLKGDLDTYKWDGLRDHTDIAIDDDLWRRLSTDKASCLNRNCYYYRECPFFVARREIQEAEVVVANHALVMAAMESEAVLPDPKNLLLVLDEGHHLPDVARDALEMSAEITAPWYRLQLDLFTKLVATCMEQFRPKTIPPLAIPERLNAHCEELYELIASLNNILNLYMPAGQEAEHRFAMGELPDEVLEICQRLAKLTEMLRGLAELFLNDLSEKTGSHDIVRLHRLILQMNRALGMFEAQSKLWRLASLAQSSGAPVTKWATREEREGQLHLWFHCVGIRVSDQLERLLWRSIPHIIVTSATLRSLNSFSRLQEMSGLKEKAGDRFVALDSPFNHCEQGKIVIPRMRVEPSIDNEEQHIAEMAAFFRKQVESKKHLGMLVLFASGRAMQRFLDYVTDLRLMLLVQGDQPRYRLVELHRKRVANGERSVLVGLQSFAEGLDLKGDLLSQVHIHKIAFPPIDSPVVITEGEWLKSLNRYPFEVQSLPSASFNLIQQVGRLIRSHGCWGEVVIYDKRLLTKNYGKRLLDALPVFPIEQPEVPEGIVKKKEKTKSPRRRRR

DinG helicase [2] = molecular target: T1, DinG helicase; assay: SPR; Netropsin; SPR single-cycle kinetics, 25 C, DinG immobilized, DNA 0.062-1 uM; DNA prepared in 10 mM potassium phosphate, 50 mM KCl, pH 7.5; SPR running buffer not in material; conditions: protein: recombinant; tags: His-tag; parallel unimolecular G4

**Q.** GGGTGGGTGGGTGGGT (structured_DNA) [T30695] was tested. Which Kd (DinG helicase [1]; dimeric parallel G4 of 2 strands) did it give?
**A.** Its Kd is 163 nM.

**Q.** With GGTGGGGGGGCGGGGGAGGCCGGG (structured_DNA) [Zic1] as the binder, how does the Kd (DinG helicase [1]; parallel G4) read?
**A.** The Kd was 22.8 nM.

**Q.** For GTGTGTGTGTGTGTGTGTGTGTGTGTGTGT (ssDNA) [G-scramble], which Kd (DinG helicase [1]; no G4 or other secondary structure) is on record?
**A.** Its Kd is 126 nM.

B1: DNA-fork (D1/D2) (dsDNA)
DNA 1: CTACTACCCCCACCCTCACAACCTTTTTTTTTTTTTT
DNA 2: TTTTTTTTTTTTTTGGTTGTGAGGGTGGGGGTAGTAG
**Q.** B1 was tested. Which Kd (DinG helicase [1]; fork 1:2, 23 bp duplex, 3' T14 tail on strand 1 and 5' T14 tail on strand 2) did it give?
**A.** The Kd was 55.9 nM.

**Q.** How did the Kd (DinG helicase [1]; G4) turn out when GGGGCGGGGTGGGTTGG (structured_DNA) [EC-9] was run?
**A.** Its Kd is 34.9 nM.

**Q.** TAGGGTTAGGGTTAGGGTTAGGG (structured_DNA) [Tel23] was tested. Which Kd (DinG helicase [1]; hybrid [3+1] unimolecular G4) did it give?
**A.** The Kd was 9.4 nM.

**Q.** With AGGGAGGGCGCTGGGAGGAGGG (structured_DNA) [c-KIT1] as the binder, how does the Kd (DinG helicase [1]; parallel unimolecular G4) read?
**A.** Its Kd is 28.9 nM.

**Q.** What about the Kd (DinG helicase [2]) of the same binder?
**A.** The Kd was 31.5 nM.

**Q.** How did the Kd (DinG helicase [1]; G4) turn out when GGGGGAGGAGGACGGGGG (structured_DNA) [EC-7] was run?
**A.** The Kd was 56.9 nM.

**Q.** How did the Kd (DinG helicase [1]; hybrid [3+1] unimolecular G4) turn out when GGGCGCGGGAGGAATTGGGCGGG (structured_DNA) [BCL2] was run?
**A.** The Kd was 21 nM.

**Q.** With GGTGGGGAGGGGTAAGGGG (structured_DNA) [EC-6] as the binder, how does the Kd (DinG helicase [1]; G4) read?
**A.** Its Kd is 36.7 nM.

**Q.** For AGGGTGGGTAGGGTGGGT (structured_DNA) [c-MYC], which Kd (DinG helicase [1]; parallel unimolecular G4) is on record?
**A.** Its Kd is 30.6 nM.

**Q.** Which Kd (DinG helicase [1]; parallel unimolecular G4) does the source give for AGGGCGGTGTGGGAATAGGGAA (structured_DNA) [KRAS] here?
**A.** The Kd was 46.4 nM.
